From US20240317847A1 (Bayer, published 2024)

T1: murine IL-11 (Invigate, e.g., lot #C210819-09) (mouse, UniProt P47873 22-199)
T1 construct: Bought protein; biotinylated where captured on streptavidin plates; also called mIL-11; mIL11
T1 sequence: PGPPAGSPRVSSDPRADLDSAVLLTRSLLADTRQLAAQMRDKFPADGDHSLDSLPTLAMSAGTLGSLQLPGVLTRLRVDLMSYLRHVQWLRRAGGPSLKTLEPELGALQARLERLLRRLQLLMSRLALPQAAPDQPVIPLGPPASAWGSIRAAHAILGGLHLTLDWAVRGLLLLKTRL

T2: human IL-11 (Invigate, e.g., lot #C121021-19) (human, UniProt P20809 22-199)
T2 construct: Bought protein; also called hIL-11; hIL11
T2 sequence: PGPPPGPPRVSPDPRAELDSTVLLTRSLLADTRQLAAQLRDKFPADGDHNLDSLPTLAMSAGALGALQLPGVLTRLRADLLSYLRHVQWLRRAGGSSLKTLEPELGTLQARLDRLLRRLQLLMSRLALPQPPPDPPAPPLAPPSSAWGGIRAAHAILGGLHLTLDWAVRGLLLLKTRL


Key:
[1] = biological target: T1, murine IL-11 (Invigate, e.g., lot …); assay: SPR, Biacore 8K; antibody captured on anti-human IgG Fc chip, IL-11 analyte 0-50 nM, 1:1 fit
Procedure: (§1) Antibody binding affinity to hIL-11 (Invigate, Germany, e.g., lot #C121021-19) and mIL-11 (Invigate, Germany, e.g., lot #C210819-09) was detected using Biacore 8K. Each antibody was captured on an anti-human IgG Fc antibody immobilized CM5 sensor chip (GE). hIL-11 and mIL-11 at different concentrations (0, 5, 15.82 and 50 nM) in 1×HBS-EP+ (pH 7.4) (GE healthcare) were injected over the sensor chip at a flow rate of 30 μL/min for an association phase of 120 s, followed by 200 s dissociation phase. The chip was then regenerated by 10 mM Glycine, pH 1.5 after each binding cycle.
(§2) The sensorgrams of blank surface and buffer channel were subtracted from the test sensorgrams. The experimental data was fitted by 1:1 model using Langmiur analysis. Molecular weight of 19.3 kDa was used to calculate the molar concentration of human and mouse IL-11.

[2] = biological target: T2, human IL-11 (Invigate, e.g., lot …); assay: as above
Procedure: as §1, §2

Kd [1] | Kd [2] | Binder
16 nM | 18 nM | TPP-31299 (antibody, human IgG4, V domains shown, consecutive numbering; also called VL-G98A) VH: EVQLLESGGGLVQPGGSLRLSCAASGFTFSHYDMNWLRQAPGKGLEWVGVISYDGSNKFYADFVKGRFTISRDNSKNTLYLQMNSLRAEDTAVYYCARTPGSHFDYWGQGTLVTVSS VL: QSVLTQPPSASGTPGQRVTISCSGSSSNIGNNAVNWYQQLPGTAPKLLIYYDDLLPSGVPDRFSGSKSGTSASLAISGLRSEDEADYYCSAWDDSLNAVVFGGGTKLTVL
43 nM | 40 nM | TPP-31310 (antibody, human IgG4, V domains shown, consecutive numbering; also called VH-G55S / VL-N97S) VH: EVQLLESGGGLVQPGGSLRLSCAASGFTFSHYDMNWLRQAPGKGLEWVGVISYDSSNKFYADFVKGRFTISRDNSKNTLYLQMNSLRAEDTAVYYCARTPGSHFDYWGQGTLVTVSS VL: QSVLTQPPSASGTPGQRVTISCSGSSSNIGNNAVNWYQQLPGTAPKLLIYYDDLLPSGVPDRFSGSKSGTSASLAISGLRSEDEADYYCSAWDDSLSGVVFGGGTKLTVL
25 nM | 15 nM | TPP-31305 (antibody, human IgG4, V domains shown, consecutive numbering; also called VH-G55A / VL-N97Q) VH: EVQLLESGGGLVQPGGSLRLSCAASGFTFSHYDMNWLRQAPGKGLEWVGVISYDASNKFYADFVKGRFTISRDNSKNTLYLQMNSLRAEDTAVYYCARTPGSHFDYWGQGTLVTVSS VL: QSVLTQPPSASGTPGQRVTISCSGSSSNIGNNAVNWYQQLPGTAPKLLIYYDDLLPSGVPDRFSGSKSGTSASLAISGLRSEDEADYYCSAWDDSLQGVVFGGGTKLTVL
28 nM | 31 nM | TPP-31307 (antibody, human IgG4, V domains shown, consecutive numbering; also called VH-G55A / VL-G98A) VH: EVQLLESGGGLVQPGGSLRLSCAASGFTFSHYDMNWLRQAPGKGLEWVGVISYDASNKFYADFVKGRFTISRDNSKNTLYLQMNSLRAEDTAVYYCARTPGSHFDYWGQGTLVTVSS VL: QSVLTQPPSASGTPGQRVTISCSGSSSNIGNNAVNWYQQLPGTAPKLLIYYDDLLPSGVPDRFSGSKSGTSASLAISGLRSEDEADYYCSAWDDSLNAVVFGGGTKLTVL
58 nM | 87 nM | TPP-31311 (antibody, human IgG4, V domains shown, consecutive numbering; also called VH-G55S / VL-G98A) VH: EVQLLESGGGLVQPGGSLRLSCAASGFTFSHYDMNWLRQAPGKGLEWVGVISYDSSNKFYADFVKGRFTISRDNSKNTLYLQMNSLRAEDTAVYYCARTPGSHFDYWGQGTLVTVSS VL: QSVLTQPPSASGTPGQRVTISCSGSSSNIGNNAVNWYQQLPGTAPKLLIYYDDLLPSGVPDRFSGSKSGTSASLAISGLRSEDEADYYCSAWDDSLNAVVFGGGTKLTVL
3 nM | 3.8 nM | TPP-31300 (antibody, human IgG4, V domains shown, consecutive numbering; also called VH-D54E) VH: EVQLLESGGGLVQPGGSLRLSCAASGFTFSHYDMNWLRQAPGKGLEWVGVISYEGSNKFYADFVKGRFTISRDNSKNTLYLQMNSLRAEDTAVYYCARTPGSHFDYWGQGTLVTVSS VL: QSVLTQPPSASGTPGQRVTISCSGSSSNIGNNAVNWYQQLPGTAPKLLIYYDDLLPSGVPDRFSGSKSGTSASLAISGLRSEDEADYYCSAWDDSLNGVVFGGGTKLTVL
3.2 nM | 3.8 nM | TPP-31302 (antibody, human IgG4, V domains shown, consecutive numbering; also called VH-D54E/VL-N97S) VH: EVQLLESGGGLVQPGGSLRLSCAASGFTFSHYDMNWLRQAPGKGLEWVGVISYEGSNKFYADFVKGRFTISRDNSKNTLYLQMNSLRAEDTAVYYCARTPGSHFDYWGQGTLVTVSS VL: QSVLTQPPSASGTPGQRVTISCSGSSSNIGNNAVNWYQQLPGTAPKLLIYYDDLLPSGVPDRFSGSKSGTSASLAISGLRSEDEADYYCSAWDDSLSGVVFGGGTKLTVL
23 nM | 15 nM | TPP-31306 (antibody, human IgG4, V domains shown, consecutive numbering; also called VH-G55A / VL-N97S) VH: EVQLLESGGGLVQPGGSLRLSCAASGFTFSHYDMNWLRQAPGKGLEWVGVISYDASNKFYADFVKGRFTISRDNSKNTLYLQMNSLRAEDTAVYYCARTPGSHFDYWGQGTLVTVSS VL: QSVLTQPPSASGTPGQRVTISCSGSSSNIGNNAVNWYQQLPGTAPKLLIYYDDLLPSGVPDRFSGSKSGTSASLAISGLRSEDEADYYCSAWDDSLSGVVFGGGTKLTVL
47 nM | 40 nM | TPP-31308 (antibody, human IgG4, V domains shown, consecutive numbering; also called VH-G55S) VH: EVQLLESGGGLVQPGGSLRLSCAASGFTFSHYDMNWLRQAPGKGLEWVGVISYDSSNKFYADFVKGRFTISRDNSKNTLYLQMNSLRAEDTAVYYCARTPGSHFDYWGQGTLVTVSS VL: QSVLTQPPSASGTPGQRVTISCSGSSSNIGNNAVNWYQQLPGTAPKLLIYYDDLLPSGVPDRFSGSKSGTSASLAISGLRSEDEADYYCSAWDDSLNGVVFGGGTKLTVL
2.9 nM | 3.6 nM | TPP-31301 (antibody, human IgG4, V domains shown, consecutive numbering; also called VH-D54E / VL-N97Q) VH: EVQLLESGGGLVQPGGSLRLSCAASGFTFSHYDMNWLRQAPGKGLEWVGVISYEGSNKFYADFVKGRFTISRDNSKNTLYLQMNSLRAEDTAVYYCARTPGSHFDYWGQGTLVTVSS VL: QSVLTQPPSASGTPGQRVTISCSGSSSNIGNNAVNWYQQLPGTAPKLLIYYDDLLPSGVPDRFSGSKSGTSASLAISGLRSEDEADYYCSAWDDSLQGVVFGGGTKLTVL
3.6 nM | 6.9 nM | TPP-31303 (antibody, human IgG4, V domains shown, consecutive numbering; also called VH-D54E / VL-G98A) VH: EVQLLESGGGLVQPGGSLRLSCAASGFTFSHYDMNWLRQAPGKGLEWVGVISYEGSNKFYADFVKGRFTISRDNSKNTLYLQMNSLRAEDTAVYYCARTPGSHFDYWGQGTLVTVSS VL: QSVLTQPPSASGTPGQRVTISCSGSSSNIGNNAVNWYQQLPGTAPKLLIYYDDLLPSGVPDRFSGSKSGTSASLAISGLRSEDEADYYCSAWDDSLNAVVFGGGTKLTVL
53 nM | 41 nM | TPP-31309 (antibody, human IgG4, V domains shown, consecutive numbering; also called VH-G55S / VL-N97Q) VH: EVQLLESGGGLVQPGGSLRLSCAASGFTFSHYDMNWLRQAPGKGLEWVGVISYDSSNKFYADFVKGRFTISRDNSKNTLYLQMNSLRAEDTAVYYCARTPGSHFDYWGQGTLVTVSS VL: QSVLTQPPSASGTPGQRVTISCSGSSSNIGNNAVNWYQQLPGTAPKLLIYYDDLLPSGVPDRFSGSKSGTSASLAISGLRSEDEADYYCSAWDDSLQGVVFGGGTKLTVL
23 nM | 15 nM | TPP-31304 (antibody, human IgG4, V domains shown, consecutive numbering; also called VH-G55A) VH: EVQLLESGGGLVQPGGSLRLSCAASGFTFSHYDMNWLRQAPGKGLEWVGVISYDASNKFYADFVKGRFTISRDNSKNTLYLQMNSLRAEDTAVYYCARTPGSHFDYWGQGTLVTVSS VL: QSVLTQPPSASGTPGQRVTISCSGSSSNIGNNAVNWYQQLPGTAPKLLIYYDDLLPSGVPDRFSGSKSGTSASLAISGLRSEDEADYYCSAWDDSLNGVVFGGGTKLTVL
